± gives the standard deviation of the averaged measurements.
test system: ATP; assay: switch fluorescence ratio, 500 uM ATP over buffer (Cy3 cluster intensity, sum of 5 cycles each) (fold (ratio)); higher = stronger signal-on switching upon ATP binding; sequences stand for … in TCGTCGGCAGCGTCAGATGTGTATAAGAGACAGTTTTTTTTTTTTTTTTTTTTTTTTT…TC; details: aptamer strand: ATP DNA aptamer (quencher-CACCTGGGGGAGTATTGCGGAGGAAGG + anchor), 100 nM annealed; ATP concentration: 500 uM
Outline: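 Clusters with intensities outside 100-1000 RFU were excluded. The remaining Cy3-labelled switching-strand clusters on a modified Illumina MiSeq flow-cell had been annealed to 100 nM quencher-labelled ATP aptamer and imaged in selection buffer, then after 15 min with 500 uM ATP at 22 °C, for five cycles separated by NaOH stripping and re-annealing. The fluorescence ratio, averaged per switch-domain sequence, is each cluster's summed target-cycle Cy3 intensity over its summed buffer-cycle Cy3 intensity.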
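Note: ATP exposure 15 min at 22 °C before imaging.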

Sequence | switch fluorescence ratio
ACCCTGGAAC | 1.045 ± 0.0039
ACCCTGTTGG | 1.01 ± 0.029
ACCCTTATAG | 1.018 ± 0.0093
ACCGAGCATG | 1.36 ± 0.1
ACCGAGTTCT | 0.99 ± 0.057
ACCGATCTCA | 1.048 ± 0.0089
ACCGCATAGG | 1.0484 ± 4.5e-05
ACCGCATCGT | 1.21 ± 0.027
ACCGCGTGGG | 1.04 ± 7.3e-05
ACCGGAGAGC | 1.1 ± 0.18
ACCGGAGGGC | 0.9905 ± 0.0044
ACCGGCACGG | 0.9679 ± 0.0037
ACCGGGCCCT | 1.008 ± 0.0093
ACCGGGCGCC | 0.967 ± 0.027
ACCGGGGTGC | 1.612 ± 0.0063
ACCGGTTACC | 1.09 ± 0.029
ACCGGTTACG | 1.027 ± 0.0055
ACCGTATTTG | 1.119 ± 0.0047
ACCGTCCCCA | 1.26 ± 0.11
ACCGTGATGT | 1.08 ± 0.024
ACCGTGCTTA | 1.01 ± 0.032
ACCGTTGGGG | 1.04 ± 0.02
ACCTAATGTT | 1.02 ± 0.016
ACCTAGCTCC | 1.71 ± 0.056
ACCTAGGGAG | 1.05 ± 0.02

Sequence | switch fluorescence ratio
ACCTATCCGG | 1.03 ± 0.017
ACCTATCTTG | 1.03 ± 0.016
ACCTATTAGA | 1.01 ± 0.022
ACCTCGTTTC | 1.02 ± 0.018
ACCTGCGGGG | 1.01 ± 0.023
ACCTGGCACA | 1.09 ± 0.012
ACCTGGGTAT | 1.01 ± 0.049
ACCTTAAAGA | 0.9915 ± 0.005
ACCTTAATTA | 1.1 ± 0.044
ACCTTATAAT | 1.025 ± 0.0092
ACCTTTTAGT | 1.04 ± 0.018
ACGAAAAGTG | 1.05 ± 0.072
ACGAAAATTT | 1.05 ± 0.13
ACGAAATAGG | 1.07 ± 0.035
ACGAAATGTT | 0.988 ± 0.021
ACGAACGGGG | 1.27 ± 0.1
ACGAAGATTA | 1.03 ± 0.014
ACGAAGATTT | 1.03 ± 0.066
ACGAAGGGAG | 1.02 ± 0.031
ACGAAGTTTT | 1.02 ± 0.0028
ACGACCGGCA | 1.11 ± 0.098
ACGACCTTGT | 1.03 ± 0.018
ACGACGGGGG | 1.2 ± 0.23
ACGACTCCCG | 1.109 ± 0.0044
ACGACTGTAG | 1.02 ± 0.029

Sequence | switch fluorescence ratio
ACGACTTTTG | 0.995 ± 0.042
ACGAGACGAC | 1.06 ± 0.023
ACGAGACGC | 1.16 ± 0.031
ACGAGATGAC | 1.05 ± 0.067
ACGAGCCATG | 1.1 ± 0.015
ACGAGGGATG | 1.01 ± 0.029
ACGAGGGGAA | 1.015 ± 0.0057
ACGAGGGGGC | 1.24 ± 0.34
ACGAGGTGGG | 0.987 ± 0.017
ACGAGGTTTT | 1.03 ± 0.042
ACGAGTTCGC | 1.04 ± 0.025
ACGATAATCG | 0.996 ± 0.008
ACGATCAGCA | 1.05 ± 0.047
ACGATCGGGC | 1.06 ± 0.05
ACGATCTCCC | 1.31 ± 0.098
ACGATCTTGC | 1.02 ± 0.035
ACGATGTACT | 1.1 ± 0.013
ACGATGTTGG | 0.994 ± 0.023
ACGATTATGC | 1.04 ± 0.11
ACGATTTTTC | 0.974 ± 0.056
ACGCAGCTGT | 1.379 ± 0.0027
ACGCAGTTCC | 1.151 ± 0.0075
ACGCATTACA | 3.9 ± 1.6
ACGCCAATGT | 1.34 ± 0.076
ACGCCACATT | 1.55 ± 0.091

Sequence | switch fluorescence ratio
ACGCCAGCTA | 1.137 ± 0.004
ACGCCCTTTT | 1.05 ± 0.052
ACGCCGGGGG | 1.01 ± 0.031
ACGCCGGGGT | 1.3 ± 0.51
ACGCGCCTGG | 1.05 ± 0.043
ACGCGCGTCG | 1 ± 0.063
ACGCGGCGAT | 1.08 ± 0.026
ACGCGGGTTT | 1.02 ± 0.02
ACGCTCATGT | 1.05 ± 0.013
ACGCTGCCGG | 1.1 ± 0.057
ACGGAAATGT | 1.18 ± 0.1
ACGGACGCCA | 1.21 ± 0.019
ACGGAGGCAT | 1.31 ± 0.024
ACGGAGGGAT | 1.32 ± 0.032
ACGGAGTAAA | 0.99939 ± 0.00086
ACGGATGTTT | 0.997 ± 0.022
ACGGATTGAA | 1.003 ± 0.0058
ACGGATTTAG | 1.024 ± 0.01
ACGGCATTTC | 1.28 ± 0.047
ACGGCCAAGG | 1.05 ± 0.031
ACGGCGCTTG | 1.051 ± 0.0053
ACGGCTACGG | 1.02 ± 0.018
ACGGGAGTGC | 1.03 ± 0.046
ACGGGATGTG | 0.978 ± 0.016
ACGGGATTTC | 1.05 ± 0.028

Source: the supplement of paper PMC10126150
